Laboratory results: article PMC3178552

Tests used:
[1] = biological target: vesicular stomatitis virus nucleoprotein lacking its 21 N-terminal residues (N[change]), MBP tag removed (vesicular stomatitis virus) (UniProt P03521); assay: SEC-MALS
[2] = biological target: vesicular stomatitis virus nucleoprotein lacking its 21 N-terminal residues (N[change]), MBP tag removed (vesicular stomatitis virus) (UniProt P03521); assay: crystal structure

For “P60: the first 60 amino acids of VSV phosphoprotein P, a two-amino acid linker and a C-terminal His6-tag (from UniProt P03520 1-60) (peptide)”, the stoichiometry N [1] was 1.
Substance “vesicular stomatitis virus nucleoprotein lacking its 21 N-terminal residues (N[change]), MBP tag removed (from UniProt P03521 22-422) (domain or fragment)” has a stoichiometry N [2] of 10.
